Test [1] addresses T1, Bacillus stearothermophilus DnaB helicase (Bacillus stearothermophilus, UniProt Q9X4C9 1-454).
T1 sequence: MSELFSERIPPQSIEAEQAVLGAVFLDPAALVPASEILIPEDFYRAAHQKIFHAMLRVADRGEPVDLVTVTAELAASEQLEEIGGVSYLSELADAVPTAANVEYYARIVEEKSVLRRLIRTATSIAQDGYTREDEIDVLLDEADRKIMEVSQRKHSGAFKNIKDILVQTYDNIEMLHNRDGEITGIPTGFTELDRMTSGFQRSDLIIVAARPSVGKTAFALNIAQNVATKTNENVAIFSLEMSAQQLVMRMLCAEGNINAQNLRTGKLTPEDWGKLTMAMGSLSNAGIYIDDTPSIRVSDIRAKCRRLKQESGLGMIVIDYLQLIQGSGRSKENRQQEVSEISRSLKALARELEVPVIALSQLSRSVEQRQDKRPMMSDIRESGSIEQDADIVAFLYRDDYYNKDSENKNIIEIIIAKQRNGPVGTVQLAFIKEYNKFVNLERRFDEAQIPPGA
Put plainly: SPR. Background: In SPR one partner is held on a chip, and binding of the other changes the refractive index at the surface.

Test [2] concerns the target T1, Bacillus stearothermophilus DnaB …. Put plainly: SEC.

Positions count from the first letter of the chain named. Names and notes keep the numbering of the source.

B1: Bacillus subtilis DnaI (wild type) (natural protein)
chain: MEPIGRSLQGVTGRPDFQKRLEQMKEKVMKDQDVQAFLKENEEVIDQKMIEKSLNKLYEYIEQSKNCSYCSEDENCNNLLEGYHPKLVVNGRSIDIEYYECPVKRKLDQQKKQQSLMKSMYIQQDLLGATFQQVDISDPSRLAMFQHVTDFLKSYNETGKGKGLYLYGKFGVGKTFMLAAIANELAEKEYSSMIVYVPEFVRELKNSLQDQTLEEKLNMVKTTPVLMLDDIGAESMTSWVRDEVIGTVLQHRMSQQLPTFFSSNFSPDELKHHFTYSQRGEKEEVKAARLMERILYLAAPIRLDGENRRHP
For B1, the “stoichiometry N” value in test [1] is 1 DnaI per stearoDnaB subunit.

B2: B. subtilis DnaI C101A mutant (natural protein)
chain: B1 chain with C101A
For B2, in test [2], the binding result is given as “binds”.

The values are drawn from article PMC1636449 (Nucleic Acids Research, 2006).
